We go through 2 molecules from article PMC6703689, “The heterogeneous nuclear ribonucleoprotein hnRNPM inhibits RNA virus-triggered innate immunity by antagonizing RNA sensing of RIG-I-like receptors” (PLoS Pathogens, 2019).

One series relates to Flag-RIG-I. The series can be described thus: MST. Particulars: MST: PBS with 100 mM Tris-HCl pH 8.8, 20 nM Cy5-dsRNA, 25 C, GST as negative control, pull-down: HEK293 lysate, biotinylated RNA, streptavidin beads.
The subject of the next series is GST-hnRNPM (human). The series can be described thus: MST. Particulars: MST: PBS with 100 mM Tris-HCl pH 8.8, 20 nM Cy5-dsRNA, 25 C, GST as negative control; pull-down: HEK293 lysate, biotinylated RNA, streptavidin beads.
In a further series the test system is GST-MDA5(280-1025). The series can be described thus: MST. Particulars: MST: PBS with 100 mM Tris-HCl pH 8.8, 20 nM Cy5-dsRNA, 25 C, GST as negative control, pull-down: HEK293 lysate, biotinylated RNA, streptavidin beads.
Series [1] concerns the target T1, Flag-RIG-I, purified from transfected HEK293 cells (human, UniProt O95786 1-925).
T1 construct: RIG-I, human; Flag-RIG-I plasmid; also called Flag-tagged RIG-I; recombinant RIG-I
T1 sequence (looked up): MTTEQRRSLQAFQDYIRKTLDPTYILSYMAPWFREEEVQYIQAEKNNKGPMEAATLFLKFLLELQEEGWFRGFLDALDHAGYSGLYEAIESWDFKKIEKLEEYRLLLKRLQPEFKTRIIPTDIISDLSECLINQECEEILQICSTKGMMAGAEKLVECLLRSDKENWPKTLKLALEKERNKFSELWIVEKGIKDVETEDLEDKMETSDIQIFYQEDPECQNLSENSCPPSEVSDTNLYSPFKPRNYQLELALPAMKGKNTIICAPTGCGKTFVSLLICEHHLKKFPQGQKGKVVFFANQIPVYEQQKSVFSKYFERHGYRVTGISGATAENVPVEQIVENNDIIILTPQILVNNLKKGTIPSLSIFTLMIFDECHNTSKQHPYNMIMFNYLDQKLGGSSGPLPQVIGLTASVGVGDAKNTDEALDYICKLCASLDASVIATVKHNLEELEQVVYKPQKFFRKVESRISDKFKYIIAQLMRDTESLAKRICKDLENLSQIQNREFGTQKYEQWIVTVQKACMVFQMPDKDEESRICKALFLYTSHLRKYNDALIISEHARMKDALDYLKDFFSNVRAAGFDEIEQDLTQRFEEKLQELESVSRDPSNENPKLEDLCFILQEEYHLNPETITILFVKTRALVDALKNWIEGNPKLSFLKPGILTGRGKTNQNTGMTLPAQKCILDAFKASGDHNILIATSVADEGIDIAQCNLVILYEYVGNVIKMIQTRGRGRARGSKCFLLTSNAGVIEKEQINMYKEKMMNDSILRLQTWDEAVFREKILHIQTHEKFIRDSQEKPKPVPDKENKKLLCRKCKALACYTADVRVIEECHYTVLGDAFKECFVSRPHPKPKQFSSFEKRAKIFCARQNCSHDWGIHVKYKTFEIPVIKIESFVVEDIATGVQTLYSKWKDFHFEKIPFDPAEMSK
The series can be described thus: pull-down; purified recombinant proteins incubated in PBS with RNase I at 4°C for 3 hours, then immunoprecipitated with anti-MDA5 and protein G beads or with anti-Flag affinity gel at 4°C for 2 hours; immunoblots. Particulars: both partners purified. (In general: Immunoblotting shows a protein as a band on a membrane.)

For series [2], the target named is T2, recombinant MDA5 (280-1,025) (pGEX6p-1-GST-MDA5 (280-1025)) (human, UniProt Q9BYX4 280-1025).
T2 construct: MDA5, human, residues 280-1025; cloned in pGEX-6p-1; No cleavage of GST is told; the MST methods call the same preparation GST-MDA5; source: E. coli BL21, purified (GST resins, eluted with reduced glutathione)
T2 sequence (looked up): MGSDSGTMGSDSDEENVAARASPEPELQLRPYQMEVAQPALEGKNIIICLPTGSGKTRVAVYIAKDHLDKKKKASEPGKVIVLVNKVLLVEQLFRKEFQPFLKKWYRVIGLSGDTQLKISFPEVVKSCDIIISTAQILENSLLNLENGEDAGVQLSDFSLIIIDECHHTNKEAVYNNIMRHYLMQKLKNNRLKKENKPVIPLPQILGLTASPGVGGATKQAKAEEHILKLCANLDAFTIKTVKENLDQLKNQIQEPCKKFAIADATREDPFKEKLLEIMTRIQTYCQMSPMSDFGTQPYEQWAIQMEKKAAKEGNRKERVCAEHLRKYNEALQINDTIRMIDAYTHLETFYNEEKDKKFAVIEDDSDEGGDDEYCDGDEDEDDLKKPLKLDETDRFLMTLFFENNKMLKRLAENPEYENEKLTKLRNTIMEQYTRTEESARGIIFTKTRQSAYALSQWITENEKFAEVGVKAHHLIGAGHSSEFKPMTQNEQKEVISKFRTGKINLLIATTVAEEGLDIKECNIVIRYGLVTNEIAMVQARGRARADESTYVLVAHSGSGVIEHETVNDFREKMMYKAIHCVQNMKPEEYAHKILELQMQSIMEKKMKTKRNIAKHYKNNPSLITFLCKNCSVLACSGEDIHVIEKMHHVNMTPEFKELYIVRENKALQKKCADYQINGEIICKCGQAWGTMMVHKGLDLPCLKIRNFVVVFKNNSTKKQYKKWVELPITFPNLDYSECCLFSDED
The description is as above. Particulars: both partners purified.

Consider 25 bp dsRNA, for which the Kd (in general, a measure of binding affinity in units of concentration) was 69 nM with Flag-RIG-I, 22.1 nM with GST-hnRNPM (human) and 131 nM in the series on GST-MDA5(280-1025). Further, the binding signal (fold decrease of affinity) in the series on Flag-RIG-I (recombinant hnRNPM present) was 10; in the series with GST-MDA5(280-1025) (recombinant hnRNPM present), 3.

B1: recombinant hnRNPM (pGEX6p-1-GST-hnRNPM) (natural protein, human, UniProt P52272 1-730, looked up)
chain: MAAGVEAAAEVAATEIKMEEESGAPGVPSGNGAPGPKGEGERPAQNEKRKEKNIKRGGNRFEPYANPTKRYRAFITNIPFDVKWQSLKDLVKEKVGEVTYVELLMDAEGKSRGCAVVEFKMEESMKKAAEVLNKHSLSGRPLKVKEDPDGEHARRAMQKVMATTGGMGMGPGGPGMITIPPSILNNPNIPNEIIHALQAGRLGSTVFVANLDYKVGWKKLKEVFSMAGVVVRADILEDKDGKSRGIGTVTFEQSIEAVQAISMFNGQLLFDRPMHVKMDERALPKGDFFPPERPQQLPHGLGGIGMGLGPGGQPIDANHLNKGIGMGNIGPAGMGMEGIGFGINKMGGMEGPFGGGMENMGRFGSGMNMGRINEILSNALKRGEIIAKQGGGGGGGSVPGIERMGPGIDRLGGAGMERMGAGLGHGMDRVGSEIERMGLVMDRMGSVERMGSGIERMGPLGLDHMASSIERMGQTMERIGSGVERMGAGMGFGLERMAAPIDRVGQTIERMGSGVERMGPAIERMGLSMERMVPAGMGAGLERMGPVMDRMATGLERMGANNLERMGLERMGANSLERMGLERMGANSLERMGPAMGPALGAGIERMGLAMGGGGGASFDRAIEMERGNFGGSFAGSFGGAGGHAPGVARKACQIFVRNLPFDFTWKMLKDKFNECGHVLYADIKMENGKSKGCGVVKFESPEVAERACRMMNGMKLSGREIDVRIDRNA
notes: hnRNPM, human; cloned in pGEX-6p-1; No cleavage of GST is told; the MST methods call the same preparation GST-hnRNPM, so the tag was probably still on the protein in the pull-down; source: E. coli BL21, purified (GST resins, eluted with reduced glutathione)
Turning to B1, the binding result in series [1] and in series [2] was “binds” in each case.
